Tests used:
[1] = target: the molecule itself; assay: SEC; analytical SE-HPLC, TSK G3000SWXL, 0.1 M phosphate pH 7.8, 0.2 M NaCl, 1 mg/mL, 0.8 mL/min, 25 °C; calibrated with BioRad standards
[2] = target: T1, recombinant Factor VIIa (rFVIIa); assay: BLI; Octet Red, Ni-NTA biosensors, 37 °C, 1000 rpm; association 180 sec, dissociation 10 min; 1:1 model, global fit; the legend of Figure 4b says rFVIIa was immobilised; conditions: both partners purified
T1 construct: rFVIIa (NovoSeven RT); no His tag on rFVIIa is stated anywhere; also called NovoSeven RT; source: bought: NovoSeven RT (named for the ELISA)

[3] = target: T1, recombinant Factor VIIa (rFVIIa); assay: cell-based or functional assay

T1 sequence (P08709 whole entry): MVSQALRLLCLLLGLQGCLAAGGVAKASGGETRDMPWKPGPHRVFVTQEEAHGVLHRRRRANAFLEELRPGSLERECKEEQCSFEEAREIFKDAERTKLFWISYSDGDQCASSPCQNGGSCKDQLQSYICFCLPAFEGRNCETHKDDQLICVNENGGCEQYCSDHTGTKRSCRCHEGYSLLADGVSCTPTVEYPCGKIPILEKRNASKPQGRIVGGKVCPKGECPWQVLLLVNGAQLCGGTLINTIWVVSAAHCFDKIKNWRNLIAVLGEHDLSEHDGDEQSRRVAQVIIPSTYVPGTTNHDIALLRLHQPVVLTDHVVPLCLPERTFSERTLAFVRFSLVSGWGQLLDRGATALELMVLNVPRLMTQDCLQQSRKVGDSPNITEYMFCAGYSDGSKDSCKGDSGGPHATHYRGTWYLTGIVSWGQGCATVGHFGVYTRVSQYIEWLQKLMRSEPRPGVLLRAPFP

| Binder | stoichiometry N [1] | Kd [2] | inhibition of FX activation by TF-FVIIa (chromogenic substrate S-2765), IC50 [3] | inhibition of amidolytic activity of FVIIa (Chromozym t-PA) in the presence of TF, IC50 [3] | inhibition of amidolytic activity of FVIIa (Chromozym t-PA) without TF, IC50 [3] | prothrombin time (PT) in citrated human plasma, 0.001-100 μM, fold prolongation over normal clotting time [3] |
| --- | --- | --- | --- | --- | --- | --- |
| CE76-E5 (hCpn10 scaffold displaying the E-76 peptide with E5 linkers) (designed binder) AGQAFRKFLPLFDRVLVERSAAETVALCDDPRVDRWYCQFVEGEKSQGKVLQATVVAVGSGSKGKGGEIQPVSVKVGDKVLLPEYGGTKVVLDDKDYFLFRDGDILGKYVD | 7 | 5.5 nM | – | – | – | – |
| CE76-P1 (hCpn10 scaffold displaying the E-76 peptide with P1 linkers) (designed binder) AGQAFRKFLPLFDRVLVERSAAAPALCDDPRVDRWYCQFVEGAAPGKVLQATVVAVGSGSKGKGGEIQPVSVKVGDKVLLPEYGGTKVVLDDKDYFLFRDGDILGKYVD | 7 | 3 nM | 1.5 nM | 6.8 nM | 8.4 nM | 7 fold |

Reference: publication PMC5118791, “Beyond Antibodies: Development of a Novel Protein Scaffold Based on Human Chaperonin 10” (Scientific Reports, 2016)
